Data set [1] concerns the target DNA gyrase (GyrA+GyrB, full Gyrase);VcParE2 (Escherichia coli;Vibrio cholerae) (UniProt P0AES4+P0AES6+Q9KMJ0). Nature of the data set: EMSA. In general terms: Mobility shift assays separate free from complexed probe on a gel.
For data set [2], the target named is Vibrio cholerae ParE2 (VcParE2), wild type, C-terminally histidine-tagged (Vibrio cholerae). Kind of data set: BLI. Background: Biolayer interferometry detects binding as a change in optical thickness at a sensor tip.

As usually defined, the Kd is the constant that tells how readily two partners part at equilibrium. Read a high Kd as a looser complex.

Sequence of UniProt P0AES4 (P0AES4 whole entry, one chain of several): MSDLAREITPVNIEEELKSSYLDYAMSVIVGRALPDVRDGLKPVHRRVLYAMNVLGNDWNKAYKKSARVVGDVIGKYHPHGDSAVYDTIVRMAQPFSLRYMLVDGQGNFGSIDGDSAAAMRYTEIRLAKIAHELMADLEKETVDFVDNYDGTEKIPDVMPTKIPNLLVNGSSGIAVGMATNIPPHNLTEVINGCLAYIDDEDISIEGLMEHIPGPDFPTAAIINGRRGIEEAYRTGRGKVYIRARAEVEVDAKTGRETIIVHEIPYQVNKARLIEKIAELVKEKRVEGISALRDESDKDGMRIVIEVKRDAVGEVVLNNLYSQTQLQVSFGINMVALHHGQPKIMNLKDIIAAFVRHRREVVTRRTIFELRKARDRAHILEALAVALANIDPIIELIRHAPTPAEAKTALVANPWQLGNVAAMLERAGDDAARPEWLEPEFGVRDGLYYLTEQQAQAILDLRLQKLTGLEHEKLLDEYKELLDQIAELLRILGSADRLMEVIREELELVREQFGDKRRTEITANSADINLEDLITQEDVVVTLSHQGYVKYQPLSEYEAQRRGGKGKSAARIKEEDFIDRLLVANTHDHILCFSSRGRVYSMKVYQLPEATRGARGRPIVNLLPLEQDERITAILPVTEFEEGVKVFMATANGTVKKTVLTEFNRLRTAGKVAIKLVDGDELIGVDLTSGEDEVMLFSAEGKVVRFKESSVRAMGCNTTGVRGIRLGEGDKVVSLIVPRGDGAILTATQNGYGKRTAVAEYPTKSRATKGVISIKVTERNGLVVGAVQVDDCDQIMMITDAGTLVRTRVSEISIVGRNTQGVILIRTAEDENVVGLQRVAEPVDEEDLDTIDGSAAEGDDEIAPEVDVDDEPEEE

With “GCTGCTCATCATGGTTTGTGAGCAGTCAGTTTGCGGGAGGTGCGGGAAAATCTGGGGTTATGCTATTTGAGTACTGGAGAAAGAAAGTGAAAGGAAGATAAAACGGGATTCATACACCGTTAAATACCGGTTTAAAAATCCCGTGGCGCGTTTTAAAAAATCTGTGCGGCTGATTTTATGCCTGATTCTGTTTATTGCCTCAGAGCGGCGCTGACGCGTTTTCTGATGGCATCAAAAATTTCCTGTTCCCCGGTCTTATCCAGCCCCATATAAGGACGCGCAGGAA (double strand) [286-bp Mu strong gyrase site fragment]”, the binding entry in data set [1] is listed as “binds”.

“VcParD2 peptide E41-S60 (N-terminal helix of the C-terminal domain)” had a Kd in data set [2] of 778 nM.

The values above are taken from article doi:10.1101/2025.07.24.666505.
